Results as given in the supplement of paper PMC9170038.

Test system: MS2 coat protein
Assay: apparent KD of MS2 coat protein; designed switch direction (-1 OFF switch, 1 ON switch): -1; higher = weaker reporter binding
Outline: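 RNA switches sharing common flanks were transcribed by stalled E. coli RNA polymerase on Illumina chips. A doubling series of SNAP-549-labelled MS2 coat protein, from 0.7 or 1.5 nM to 3 µM, was applied in Tris-HCl pH 7.5 buffer with KCl, MgCl2, BSA, DTT, tRNA and Tween-20. Each step lasted 0.8–1.5 h at the bottom of the series and 10–20 min at the top. Normalised cluster fluorescence was curve-fitted, giving apparent KD as the per-design median over clusters.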

[1] = Eterna round: R95, input ligand: microRNA oligo, concentration not stated
[2] = input ligand: microRNA oligo, concentration not stated
[3] = Eterna round: R95, input ligand: FMN 200 uM
[4] = Eterna round: R95, input ligand: none

Row | Sequence | apparent KD of MS2 coat protein (input ligand: FMN 200 uM) | apparent KD of MS2 coat protein (input ligand: none) | apparent KD of MS2 coat protein [1] | apparent KD of MS2 coat protein [2] | apparent KD of MS2 coat protein [3] | apparent KD of MS2 coat protein [4]
1 | GGAGGAGAGGUAAGGAUAUGGUGGUGGAAACACCACCAGAAGGUACAUGAGGAUCACCCAUGUAAGGAAGGAGG [AK-MS2ROC-r4-Bmoexclusion4-17.1] (Eterna round: R97, puzzle: Brourd's mod of Exclusion 4) | 26.7 nM | 26.6 nM |  |  |  | 
2 | GCCUGUGAAGGAUAUACAUGAGGAUCACCCAUGUGGCGGGCAUACCCGCCGAGACCGUGUAGAAGGUCAUAGUA [Telamais] (puzzle: Exclusion 3) |  |  | 49.9 nM |  |  | 
3 | GGUGCGUAUGUGAGGAUAUGCUGGUCCUUGGAUCGGCAGAAGGCACAUGAGGAUCACCCAUGUGGUGUCGUACU [salish99_Bmod_ex4_082] (puzzle: Brourd's mod of Exclusion 4) |  |  | 173 nM |  |  | 
4 | UUUAUGUCAGGAUAUGAGUCGUAGAACAAUAGUACUACGUCUCAGAAGGGACAUGAGGAUCACCCAUGUGCCUC [Fiskers Ex 4 Super Stable 44 mod 26] (puzzle: Exclusion 4) |  |  | 35.7 nM |  |  | 
5 | UAAAAUAGUGUGAGGAUAUGCUGGUCCUUGGAUCAGCAGAAGGCACAUGAGGAUCACCCAUGUAGUUAAUUAUA [Mat - Exclusion 4 - JL Mod - D24] (puzzle: Brourd's mod of Exclusion 4) |  |  | 36.8 nM |  |  | 
6 | UUUUAACAUGAGGAUCACCCAUGUGAGGAUAUCGAAAUUUAUAUUUAUAUUAAUAAUUCGAGAAGGCACAUUUU [JMF 77] (puzzle: Exclusion 1) |  |  | 155 nM |  |  | 
7 | UUUUAACAUGAGGAUCACCCAUGUGAGGAUAUCGAUAUUUAUAUUAAUAUUAAUAAAACGAGAAGGCACAUUUU [JMF 7] (puzzle: Exclusion 1) |  |  | 65.2 nM |  |  | 
8 | UAUUAGUAAGGAUAUGAGACGUAGGACGCAAGUCCUACGUCUCAGAAGGUACAUGAGGAUCACCCAUGUCUAUU [Mod of Fisker 10 - Jieux - Exclusion 4] (Eterna round: R97, puzzle: Exclusion 4) | 21.2 nM | 22.2 nM |  |  |  | 
9 | AGAAACUCAAGAGGAUAUCACAUGAGGAUCACCCAUGUAUAGCGCGCUAUGCUAGUCCUCGUAUUUGAGAAGGUUUGAUAAAUG [Mat - Exclusion NG 2 - Mod of JL - D78] (Eterna round: R96, puzzle: Exclusion NG 2) | 16.2 nM | 16.9 nM |  | 14.2 nM |  | 
10 | CAAUAAAAGCGAGGAUAUCCGUAUAAAGAUACAGGAGAAGGUGCGGGUACUCCUCACAUGAGGAUCACCCAUGUAAGAAAUAAA [Erxeraso] (Eterna round: R96, puzzle: Exclusion NG 1) | 67.4 nM | 57.1 nM |  | 33.7 nM |  | 
11 | AAAAUGUCAGGAUAUUGUUAGUUUAGUUGUUUGUAUUAGUUCGAGAAGGGACAUGAGGAUCACCCAUGUGAAAA [Ex4 #68] (Eterna round: R97, puzzle: Exclusion 4) | 42.5 nM | 35.8 nM |  |  |  | 
12 | GAAAAGGUAGGAUAUACGAAAAAAAAGGGUAGAAAAAAAUCACAUGAGGAUCACCCAUGUAGAAGGACCAAAAG [salish99_ex2_r3_072] (puzzle: Exclusion 2) |  |  | 25 nM |  | 62.3 nM | 28.3 nM
13 | AGCGAAGAGACAGGAUAUGAGAAUAGAUAGAGCUCAGAAGGGUCACAUGAGGAUCACCCAUGUAAAGUCUUGAGGCUGCGUGGU [Prohibition 10 - Jieux - Exclusion NG 1] (Eterna round: R96, puzzle: Exclusion NG 1) | 123 nM | 61.7 nM |  | 41.1 nM |  | 
14 | UAUACACAUGAGGAUCACCCAUGUGAGGAUAUGUACAACAACAAGACGGAAAAAAAAUACAGAAGGCACAAAUA [JR_Exclusion1_Sub028] (puzzle: Exclusion 1) |  |  | 25.7 nM |  | 22.7 nM | 32.4 nM
15 | UGCAUGUCAGGAUAUAUUAGUACACUAGUCAGUCUAGGUGCGUAGAAGGGACAUGAGGAUCACCCAUGUGACAU [Eternabot (L2) Solution 1] (Eterna round: R97, puzzle: Exclusion 4) | 143 nM | 64.9 nM |  |  |  | 
16 | GCUCGUACGGAGGAUAUAGAUUUCGGAAACCGACUAGAAGGCCGAACAUGAGGAUCACCCAUGUGAUUUAUAUC [Gesozarequ] (puzzle: Exclusion 6) |  |  | 18.9 nM |  | 23.2 nM | 23.4 nM
17 | AUCAUGUAAGGAUAUCUUACAUGUGACUUCGGUCACUGUUCAGAGAAGGUACAUGAGGAUCACCCAUGUAGAAC [Ex4-3: 45] (puzzle: Exclusion 4) |  |  | 18.5 nM |  |  | 

Row | Sequence | apparent KD of MS2 coat protein (input ligand: FMN 200 uM) | apparent KD of MS2 coat protein (input ligand: none) | apparent KD of MS2 coat protein [1] | apparent KD of MS2 coat protein [2] | apparent KD of MS2 coat protein [3] | apparent KD of MS2 coat protein [4]
18 | UUUGUUUAUGUAGGAUAUGCCUGGCGUGCCUUCGCAGAAGGACAUGAGGAUCACCCAUGUAUUGCGGUCUGCGUUCAGAUCGCU [salish99_ExNG1_r4_030] (Eterna round: R96, puzzle: Exclusion NG 1) | 46.8 nM | 41.8 nM |  | 29.1 nM |  | 
19 | GCCAGAGCAGGAUAUUCAAUGUAUCACAUGAGGAUCACCCAUGUCCAGCGAAAGCUGGAGGGAGAAGGGCUCUGGC [Fiskers Ex 5 - 17] (puzzle: Exclusion 5) |  |  | 234 nM |  | 65.6 nM | 257 nM
20 | AACCUGAGGCAAAGCUUUAGGUGUACAUGAGGAUCACCCAUGUAGGAUAUGGUAGGCAAAGCUUACCAGAAGGACAUUAUGAUG [Mat - Exclusion NG 3 - Mod of JL - D51] (Eterna round: R96, puzzle: Exclusion NG 3) | 104 nM | 62.9 nM |  | 49.5 nM |  | 
21 | CCUGCGUGAGGAUAUACAUGAGGAUCACCCAUGUCACAAUUAACACACUCCGCCUCACGUAGAAGGCACGCAUA [Tienarra] (Eterna round: R97, puzzle: Exclusion 3) | 23.1 nM | 13.6 nM |  |  |  | 
22 | GAUAAGGUAGGAUAUACGAAGAAAGAGGGUAGUAAUAAUACACAUGAGGAUCACCCAUGUAGAAGGACCAAUAG [Mat - Exclusion 2 - Mod of my Tesla design - D43] (puzzle: Exclusion 2) |  |  | 26 nM |  | 39.1 nM | 26.4 nM
23 | ACAAGCGUUUUGCUCGUAAAGUAGGAACGCGAGAGCGGCACAUGAGGAUCACCCAUGUAGAGGCAGUUGGUGGAGAU [JR_SV3TOV2_Sub030] (puzzle: Sensor v3, turn-off variant 2) |  |  | 24.2 nM |  | 24.5 nM | 25.3 nM
24 | GGUACUAACACGAGAGUGUUAGUACUAUAAGCUUGUGUUACAUGAGGAUCACCCAUGUCCUCAUAGGCUCGUCUUAG [Mat - Sensor v3 - Turn-off var 2 - D84] (puzzle: Sensor v3, turn-off variant 2) |  |  | 34.8 nM |  | 93.7 nM | 91.9 nM
25 | GAAAAGGUAGGAUAUACGAAAAAAAAGGGUAGAAAAAAAACACAUGAGGAUCACCCAUGUAGAAGGACCUAAAG [salish99_ex2_r3_090] (puzzle: Exclusion 2) |  |  | 25.7 nM |  | 56.1 nM | 24.6 nM
26 | GCAAGCUUAAUCUGUAUGAACAUGAGGAUCACCCAUGUAUAAGGUAAUUCUGUUGGGUUUUUUAUUGCUCGUCUUAU [JR_STOV1_Sub026] (Eterna round: R97, puzzle: Sensor, turn-off variant 1) | 71.8 nM | 76.9 nM |  |  |  | 
27 | UUUAGUUUAGGAUAUGUAGAUUUUAACAUGAGGAUCACCCAUGUAGAUCCUGAAUUAACUACAGAAGGGAGCAUUU [Mod of Brourd 15 - Jieux - Exclusion 5] (Eterna round: R97, puzzle: Exclusion 5) | 70.5 nM | 68.2 nM |  |  |  | 
28 | ACAUGAGGAUCACCCAUGUCCGGCUGGUCUGUUCCGGCUGUCGAGGAUAUAGUCCGGUGUUCGCGCUAGAAGGCGAGGGCUGGA [Aenatbe mod 48] (Eterna round: R96, puzzle: Exclusion NG 3) | 88 nM | 43.6 nM |  | 29.9 nM |  | 
29 | GGGCCCGGUGUGAGGAUAUGAGUUCGGAAAUGAGCUUAGAAGGCACAUGAGGAUCACCCAUGUAAGCCGGGCCC [-34.2, -32.1 kcal, A 26%, 1-0] (Eterna round: R97, puzzle: Brourd's mod of Exclusion 4) | 14.3 nM | 35.6 nM |  |  |  | 
30 | UUUAAUUUUUUUUUUUUACAAGCUUUUUGCUCGUCUUAUACAUGAGGAUCACCCAUGUGGGUGAGAGAUAAAUUAUC [JMF 14] (puzzle: Sensor v3, turn-off variant 2) |  |  | 17 nM |  | 53.2 nM | 64.2 nM
31 | AGAGUGCUGCGAGGAUAUACAUGAGGAUCACCCAUGUAAACGUGUGAGGCAAAGCCUCACACGAUGUAGAAGGCGCAGUACUCA [Mat - Exclusion NG 2 - Mod of JL - D37] (Eterna round: R96, puzzle: Exclusion NG 2) | 19.6 nM | 21.5 nM |  | 11.7 nM |  | 
32 | AGCUGUGGCCGAGGAUAUCACGAACCAUGGAAAACCAUGGAACUCCUACAUGAGGAUCACCCAUGUGAGAAGGCGGUCUCAGCA [Eli eng2 - 020] (Eterna round: R96, puzzle: Exclusion NG 2) | 109 nM | 52.1 nM |  | 33.4 nM |  | 
33 | GGAAGUAGAAACCGAUCCUACAUGAGGAUCACCCAUGUAGCAAGACGUGCACGCGAAGCUCGUCAGACUACCAGAAA [salish99_TOv1_r3_009] (puzzle: Sensor v3, turn-off variant 1) |  |  | 286 nM |  | 301 nM | 293 nM
